For test [1], the target named is human AMH of serum samples (human) (UniProt P03971). Put plainly: VIDAS sandwich, detection AA011 conjugate 500 ng/ml, AMH 4 ng/ml.
Test [2] shares this target. The test can be described thus: VIDAS sandwich, detection AA011 conjugate 500 ng/ml, AMH 0.275 ng/ml.
For test [3] the target is unchanged. The test can be described thus: VIDAS sandwich, detection AA011 conjugate 500 ng/ml, AMH 0.11 ng/ml.
Test [4] shares this target. The test can be described thus: VIDAS sandwich, detection AA011 conjugate 500 ng/ml, AMH 0.9 ng/ml.
Test [5] has the same target. Put plainly: VIDAS sandwich, detection AA011 conjugate 500 ng/ml, AMH 2.1 ng/ml.
Test [6] has the same target. Put plainly: VIDAS sandwich, detection AA011 conjugate 500 ng/ml, AMH 8.7 ng/ml.
The target is the same in test [7]. The test can be described thus: VIDAS sandwich, detection AA011 conjugate 500 ng/ml, AMH 0.055 ng/ml.
For test [8] the target is unchanged. Put plainly: VIDAS sandwich, detection AA011 conjugate 500 ng/ml, AMH 11 ng/ml.
Test [9] has the same target. The test can be described thus: VIDAS sandwich, detection AA011 conjugate 500 ng/ml, AMH 6.3 ng/ml.

UniProt P03971, sequence (P03971 25-560 limits assumed): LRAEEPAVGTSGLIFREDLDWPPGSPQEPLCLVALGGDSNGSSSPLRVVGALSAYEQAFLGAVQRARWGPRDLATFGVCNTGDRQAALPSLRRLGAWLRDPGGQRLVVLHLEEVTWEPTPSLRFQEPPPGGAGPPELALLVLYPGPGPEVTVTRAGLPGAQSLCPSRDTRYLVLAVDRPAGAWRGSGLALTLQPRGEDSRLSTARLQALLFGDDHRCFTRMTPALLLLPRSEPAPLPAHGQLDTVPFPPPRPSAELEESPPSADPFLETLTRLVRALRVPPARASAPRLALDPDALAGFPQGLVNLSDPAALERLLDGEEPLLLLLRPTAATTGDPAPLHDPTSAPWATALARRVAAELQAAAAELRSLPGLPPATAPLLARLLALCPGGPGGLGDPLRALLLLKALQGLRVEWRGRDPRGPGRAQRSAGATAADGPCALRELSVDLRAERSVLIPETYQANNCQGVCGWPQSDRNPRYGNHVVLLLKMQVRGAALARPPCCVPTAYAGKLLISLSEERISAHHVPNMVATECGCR

Take “AA012 commercial anti-AMH antibody (AnshLabs)”: the S/N (VIDAS RFV/RFV0) in test [1] was determined as 65; in [2], 5; in test [3], 3; in test [4], 16; in [5] it was 36; in [6], 107. The S/N (VIDAS RFV/RFV0) in [7] was found to be 2; in [8], 120; in test [9], 87. The VIDAS RFV Signal in test [1] is 2940 RFV; in test [2] it was 209 RFV; in test [3], 113 RFV; in test [4], 735 RFV; in test [5], 1600 RFV; in test [6], 4810 RFV. The VIDAS RFV Signal in test [7] is 81 RFV; in [8] it was 5390 RFV; in [9], 3920 RFV.

The values are drawn from patent US20190211096A1.
